We go through three molecules from patent US20150073033A1 (University of Texas, published 2015).

Assay [1] deals with T1, purified recombinant GST-Bub1 (UniProt O43683 1-1085, limits assumed).
T1 construct: Bacterially purified; not shown: GST
As to the kind of experiment: GST pull-down, purified recombinant proteins. How it is done:
Nuclei were stained with DAPI (blue). […] A GST pull-down assay was performed.

The target in assay [2] is T2, endogenous IKKβ (U87/EGFR or U251 cells) (human, UniProt O14920 1-756).
T2 sequence (looked up): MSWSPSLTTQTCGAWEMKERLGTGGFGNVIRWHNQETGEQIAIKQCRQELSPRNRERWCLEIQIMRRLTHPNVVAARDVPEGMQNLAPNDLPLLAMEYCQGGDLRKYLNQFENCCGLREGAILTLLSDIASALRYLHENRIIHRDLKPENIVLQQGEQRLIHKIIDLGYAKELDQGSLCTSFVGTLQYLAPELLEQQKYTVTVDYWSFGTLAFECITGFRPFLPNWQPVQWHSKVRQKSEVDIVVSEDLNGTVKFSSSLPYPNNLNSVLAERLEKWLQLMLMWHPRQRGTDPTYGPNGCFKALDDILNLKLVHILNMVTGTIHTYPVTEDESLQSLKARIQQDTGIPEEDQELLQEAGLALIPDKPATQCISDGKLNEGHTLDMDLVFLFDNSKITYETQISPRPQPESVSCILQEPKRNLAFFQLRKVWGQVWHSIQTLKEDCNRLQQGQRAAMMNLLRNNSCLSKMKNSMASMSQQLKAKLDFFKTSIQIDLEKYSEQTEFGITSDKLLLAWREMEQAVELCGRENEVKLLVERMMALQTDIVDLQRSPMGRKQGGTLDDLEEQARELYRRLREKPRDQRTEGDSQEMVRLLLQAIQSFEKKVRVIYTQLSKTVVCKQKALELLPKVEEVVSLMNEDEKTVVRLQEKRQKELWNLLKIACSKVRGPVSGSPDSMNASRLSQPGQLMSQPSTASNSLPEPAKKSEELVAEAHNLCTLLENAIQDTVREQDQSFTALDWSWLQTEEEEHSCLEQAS
As to the kind of experiment: IP of PKCζ, anti-IKKβ immunoblot, EGF-treated cells.

The target of assay [3] is endogenous Bub1 (human, UniProt O43683 1-1085). As to the kind of experiment: co-IP, HeLa cells.
Chain of endogenous Bub1 (O43683 whole entry): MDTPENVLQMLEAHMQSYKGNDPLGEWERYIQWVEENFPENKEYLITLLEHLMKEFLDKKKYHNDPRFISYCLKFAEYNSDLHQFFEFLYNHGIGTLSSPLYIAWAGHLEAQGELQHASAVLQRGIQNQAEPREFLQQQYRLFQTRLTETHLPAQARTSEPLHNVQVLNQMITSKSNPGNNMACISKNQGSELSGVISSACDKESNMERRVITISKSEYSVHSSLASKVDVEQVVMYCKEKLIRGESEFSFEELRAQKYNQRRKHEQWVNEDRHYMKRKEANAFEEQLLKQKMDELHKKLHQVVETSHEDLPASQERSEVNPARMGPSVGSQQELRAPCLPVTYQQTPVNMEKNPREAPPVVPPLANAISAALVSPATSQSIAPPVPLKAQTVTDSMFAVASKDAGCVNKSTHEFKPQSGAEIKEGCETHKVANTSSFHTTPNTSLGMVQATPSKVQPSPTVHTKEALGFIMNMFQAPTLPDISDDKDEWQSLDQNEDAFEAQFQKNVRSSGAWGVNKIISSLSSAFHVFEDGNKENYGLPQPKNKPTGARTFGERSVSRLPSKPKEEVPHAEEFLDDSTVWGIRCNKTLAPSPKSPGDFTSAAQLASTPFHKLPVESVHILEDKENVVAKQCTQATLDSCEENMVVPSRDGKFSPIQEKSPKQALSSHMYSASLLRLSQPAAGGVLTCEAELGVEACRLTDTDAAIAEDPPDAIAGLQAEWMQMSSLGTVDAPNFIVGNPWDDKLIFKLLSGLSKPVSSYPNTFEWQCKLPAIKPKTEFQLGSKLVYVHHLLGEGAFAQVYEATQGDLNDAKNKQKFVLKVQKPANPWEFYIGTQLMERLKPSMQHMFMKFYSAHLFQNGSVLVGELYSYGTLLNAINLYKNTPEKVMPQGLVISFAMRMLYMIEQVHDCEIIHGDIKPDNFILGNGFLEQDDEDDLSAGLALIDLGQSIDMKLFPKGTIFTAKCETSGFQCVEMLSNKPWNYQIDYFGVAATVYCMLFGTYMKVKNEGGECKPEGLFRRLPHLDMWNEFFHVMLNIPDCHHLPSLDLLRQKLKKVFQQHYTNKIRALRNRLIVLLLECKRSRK

T1 sequence (O43683 whole entry): as above

B1: purified recombinant His-PKM2 (wild type) (enzyme)
chain: not shown
notes: Expressed in bacteria and purified; unphosphorylated; also called WT PKM2; WT His-PKM2
For the molecule B1, the binding result in assay [1] is reported as “no binding”.

B2: endogenous PKCζ (enzyme, human, UniProt Q05513 1-592, looked up)
chain: MPSRTGPKMEGSGGRVRLKAHYGGDIFITSVDAATTFEELCEEVRDMCRLHQQHPLTLKWVDSEGDPCTVSSQMELEEAFRLARQCRDEGLIIHVFPSTPEQPGLPCPGEDKSIYRRGARRWRKLYRANGHLFQAKRFNRRAYCGQCSERIWGLARQGYRCINCKLLVHKRCHGLVPLTCRKHMDSVMPSQEPPVDDKNEDADLPSEETDGIAYISSSRKHDSIKDDSEDLKPVIDGMDGIKISQGLGLQDFDLIRVIGRGSYAKVLLVRLKKNDQIYAMKVVKKELVHDDEDIDWVQTEKHVFEQASSNPFLVGLHSCFQTTSRLFLVIEYVNGGDLMFHMQRQRKLPEEHARFYAAEICIALNFLHERGIIYRDLKLDNVLLDADGHIKLTDYGMCKEGLGPGDTTSTFCGTPNYIAPEILRGEEYGFSVDWWALGVLMFEMMAGRSPFDIITDNPDMNTEDYLFQVILEKPIRIPRFLSVKASHVLKGFLNKDPKERLGCRPQTGFSDIKSHAFFRSIDWDLLEKKQALPPFQPQITDDYGLDNFDTQFTSEPVQLTPDDEDAIKRIDQSEFEGFEYINPLLLSTEESV
Turning to B2, in assay [2], the binding result was “no binding”.

B3: endogenous PKM1 (enzyme)
chain: not shown
notes: Looked for in Bub3-Bub1 immunoprecipitates
Regarding B3, the binding result in assay [3] is “no binding”.
